Test results reported in publication PMC5065627, “LWD–TCP complex activates the morning gene CCA1 in Arabidopsis”.

Legend:
GST-TCP20 = GST-TCP20 (Arabidopsis thaliana, UniProt Q9LSD5 1-314); assay: competition; 20x/40x unlabelled mTBS against labelled TBS; 35 mM KCl, 15 mM HEPES pH 7.5, 0.4 mM EDTA, 6% glycerol, 50 ng/ul poly(dI-dC), 0.05 pmol probe, room temperature, 10 min; conditions: protein: recombinant; tags: GST (N-terminal, pET42a); chain copies: 2; blunt
GST-TCP22 = GST-TCP22 (Arabidopsis thaliana, UniProt Q9C7G4 1-375); assay: as above; conditions: protein: recombinant; tags: GST (N-terminal, pET42a); chain copies: 2; blunt
Chain of GST-TCP22 (Q9C7G4 whole entry): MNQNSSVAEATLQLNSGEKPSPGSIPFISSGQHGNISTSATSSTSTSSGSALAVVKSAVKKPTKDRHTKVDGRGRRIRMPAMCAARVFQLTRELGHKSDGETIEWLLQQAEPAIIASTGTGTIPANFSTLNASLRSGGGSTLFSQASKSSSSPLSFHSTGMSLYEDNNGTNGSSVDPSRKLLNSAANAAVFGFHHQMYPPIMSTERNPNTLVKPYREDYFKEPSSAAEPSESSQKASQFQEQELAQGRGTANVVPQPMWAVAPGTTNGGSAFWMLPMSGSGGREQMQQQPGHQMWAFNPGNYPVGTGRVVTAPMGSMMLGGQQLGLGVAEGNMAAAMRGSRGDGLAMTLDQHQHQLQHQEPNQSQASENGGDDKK

Chain of GST-TCP20 (Q9LSD5 whole entry): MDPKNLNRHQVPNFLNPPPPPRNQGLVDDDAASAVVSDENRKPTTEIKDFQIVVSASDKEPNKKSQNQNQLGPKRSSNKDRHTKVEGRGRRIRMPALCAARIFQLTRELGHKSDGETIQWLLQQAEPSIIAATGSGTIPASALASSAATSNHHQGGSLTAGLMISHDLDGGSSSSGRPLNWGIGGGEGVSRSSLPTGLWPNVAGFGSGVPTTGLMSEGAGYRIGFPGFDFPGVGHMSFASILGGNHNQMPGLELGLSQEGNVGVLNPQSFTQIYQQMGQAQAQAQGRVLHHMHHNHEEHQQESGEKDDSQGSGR

B1: mTBS 50-bp CCA1 promoter competitor (dsDNA)
DNA 1: GAGATTAACGATCTTAAGTATTGAAACATAGATCAAGATATTATAACGAA
DNA 2: TTCGTTATAATATCTTGATCTATGTTTCAATACTTAAGATCGTTAATCTC
B1: no binding (GST-TCP20); no binding (GST-TCP22).
